From paper PMC4585926, “A RANKL mutant used as an inter-species vaccine for efficient immunotherapy of osteoporosis” (Scientific Reports, 2015) come the findings set out here.

First the molecules themselves.
B1: human RANKL ectodomain (residues 158-317), wild type [human] / mouse RANK extracellular domain [mouse] (parent complex)
chain 1: SKLEAQPFAHLTINATDIPSGSHKVSLSSWYHDRGWAKISNMTFSNGKLIVNQDGFYYLYANICFRHHETSGDLATEYLQLMVYVTKTSIKIPSSHTLMKGGSTKYWSGNSEFHFYSINVGGFFKLRSGEEISIEVSNPSLLDPDQDATYFGAFKVRDID
chain 2: VTPPCTQERHYEHLGRCCSRCEPGKYLSSKCTPTSDSVCLPCGPDEYLDTWNEEDKCLLHKVCDAGKALVAVDPGNHTAPRRCACTAGYHWNSDCECCRRNTECAPGFGAQHPLQLNKDTVCTPCLLGFFSDVFSSTDKCKPWTNCTLLGKLEAHQGTTESDVVCSSSMTLRRPPKEAQAYLPS

In this assay the parent is B1. Put plainly: SPR (Biacore, chelating NTA sensor chip); hRANKL or mutant injected at 0, 0.47, 0.94, 1.88, 3.75, 7.5, 15 and 30 nM; parent: 0.156 nM. On the technique in general: In SPR one partner is held on a chip, and binding of the other changes the refractive index at the surface.
The term Kd denotes the equilibrium constant for the complex coming apart. On to chain 1 D143A, for which the dissociation constant (Kd) is 2.15 nM.

Regarding chain 1 R66A, the dissociation constant Kd is 10.7 nM.

With chain 1 R66A, chain 1 D143A, the dissociation constant Kd was 39.4 nM.
